Results published in US9598483B2, “Monoclonal antibody binding specifically to DLL4 and use thereof” (ABLBIO, priority 2012, dated 2017).
“Also recorded” adds a separate entry of the source.

B1: MLCK-2: human monoclonal anti-DLL4 antibody; heavy chain variable region SEQ ID NO: 5, light chain variable region SEQ ID NO: 19 (antibody, V domains shown)
VH: EVQLLESGGGLVQPGGSLRLSCAASGFTFSDYAMSWVRQAPGKGLEWVSWIYSGSGNKYYADSVKGRFTISRDNSKNTLYLQMNSLRAEDTAVYYCARADWPFDYWGQGTLVTVSS
VL: QSVLTQPPSASGTPGQRVTISCTGSSSNIGSNDVTWYQQLPGTAPKLLIYADSKRPSGVPDRFSGSKSGTSASLAISGLRSEDEADYYCGTWDYSLSAYVFGGGTKLTVL
modifications: a heavy chain variable region of MLCK-2; a light chain variable region of MLCK-2
B2: MLCK-3: human monoclonal anti-DLL4 antibody; heavy chain variable region SEQ ID NO: 8, light chain variable region SEQ ID NO: 23 (antibody, V domains shown)
VH: EVQLLESGGGLVQPGGSLRLSCAASGFTFSDYAMSWVRQAPGKGLEWVSWIYYDSGSKYYADSVKGRFTISRDNSKNTLYLQMNSLRAEDTAVYYCARADLPFDYWGQGTLVTVSS
VL: QSVLTQPPSASGTPGQRVTISCSGSSSNIGNNAVTWYQQLPGTAPKLLIYSDNHRPSGVPDRFSGSKSGTSASLAISGLRSEDEADYYCGTWDASLSGYVFGGGTKLTVL
modifications: a heavy chain variable region of MLCK-3; a light chain variable region of MLCK-3
B3: MLCK-4: human monoclonal anti-DLL4 antibody; heavy chain variable region SEQ ID NO: 11, light chain variable region SEQ ID NO: 27 (antibody, V domains shown)
VH: EVQLLESGGGLVQPGGSLRLSCAASGFTFSNYAMSWVRQAPGKGLEWVSWIYHGGGDTYYADSVKGRFTISRDNSKNTLYLQMNSLRAEDTAVYYCARGPNYTFGKPFDYWGQGTLVTVSS
VL: QSVLTQPPSASGTPGQRVTISCRGSPSNIGNNTVYWYQQLPGTAPKLLIYSDSQRPSGVPDRFSGSKSGTSASLAISGLRSEDEADYYCGSWDYSLSAYVFGGGTKLTVL
modifications: a heavy chain variable region of MLCK-4; a light chain variable region of MLCK-4
B4: MLCK-1: human monoclonal anti-DLL4 antibody; heavy chain variable region SEQ ID NO: 1, light chain variable region SEQ ID NO: 15 (antibody, V domains shown)
VH: EVQLLESGGGLVQPGGSLRLSCAASGFTFSDYAMSWVRQAPGKGLEWVSWIYSDDGNKYYADSVKGRFTISRDNSKNTLYLQMNSLRAEDTAVYYCARADPPFDYWGQGTLVTVSS
VL: QSVLTQPPSASGTPGQRVTISCTGSSSNIGSNNVSWYQQLPGTAPKLLIYSDNNRPSGVPDRFSGSKSGTSASLAISGLRSEDEADYYCATWDSSLNGYVFGGGTKLTVL
modifications: a heavy chain variable region of MLCK-1; a light chain variable region of MLCK-1

What was measured:
[1] = system: human umbilical vein endothelial cell (HUVEC); test: HUVEC proliferation assay on rhDLL4-coated plate (CCK-8); type: cell-based; details: rhDLL4-coated plate 1 μg/ml; MLCK-2 mAb 20 μg/ml; 96 hours
Protocol: In order to investigate the effect of DLL4-binding antibodies on proliferation of human umbilical vein endothelial cell (HUVEC), a representative anti-DLL4 antibody, MLCK-2 antibody, was analyzed for the effect thereof on proliferation of HUVEC.
To be specific, human umbilical vein endothelial cell (HUVEC) was purchased from Lonza to be used in this experiment. T-flask (Nunc) was coated with PBS buffer (Gibco) added with 1% gelatin (Sigma) at a room temperature for 4 to 6 hours, washed with PBS, and then it was used for culturing HUVECs. EBM-2 (Lonza) supplemented with EGM-2 Single Quot (Lonza) was used as a culture medium, density of a cell culture was remained below 80%, and the cells were cultured at 37° C. in a 5% CO2 incubator. The cells before passage 6 were used for this experiment. HUVEC proliferation assay was done by following process. First, to prepare the hDLL4-coated plate, one day before conducting the experiment, rhDLL4 (R&D systems) was diluted in a carbonate buffer to a final concentration of 1 μg/ml in a 96-well plate (BD), where 100 μl of the diluted rhDLL4 was inoculated per each well, and the plate was incubated at 4° C. overnight. […] Using the apparatus SpectraMax 190 (Molecular Devices), the absorption of the sample at 450 nm-650 nm was measured and the levels of cell proliferation were compared among different test groups.

[2] = target: T1, human DLL4-His bound to plate-coated Notch 1-Fc (Homo sapiens, UniProt Q9NR61); test: ELISA-based solution competition (neutralization) test, DLL4 binding to hNotch-1-hFc; details: antibody concentration of 0.1 μM
T1 construct: The DLL4 antigen protein comprises 27th to 522nd amino acid residues of DLL4; purchased R&D System 1506-D4/CF
Protocol: The neutralization effects of the anti-DLL4 antibodies were evaluated using an ELISA-based solution competition test.
Each well of a 96-well microtiter plate (Nunc-Immuno Plate, NUNC, Rochester, N.Y.) was coated with 100 μl of 500 ng/ml of hNotch-1-hFc protein (R&D Systems) (diluted in PBS) at 4° C. overnight, and non-specific binding sites were blocked with BSA for 2 hours.
The anti-DLL4 antibody (purified protein) on the 96-well microtiter plate was premixed with serial dilutions of antigen protein (DLL4 antigen, 600 ng/m) at an antibody concentration ranging from 0 nM to 140 nM. The antigen/antibody mixture was incubated for 30 minutes, and then transferred to a microtiter plate precoated with the DLL4 receptor hNotch-1 protein (50 ng/well) in order to measure free […]. Then, the plate was incubated for 2 hours and washed five times with 0.05% tween 20-containing PBS. In order to detect the DLL4 antigen bound to the plate, an HRP-conjugated His […] polyclonal antibody reagent (Roche applied science) was diluted at a ratio of 1:500, and the washed microtiter plate was treated with the diluted antibody reagent, and then allowed to react at 37° C. for 1 hour. Then, color development was performed using a colorimetric substrate (3,3′,5,5′-tetramethylbenzidine; Sigma-Aldrich Co.), and the enzymatic reaction was stopped using 0.5 mol/l of sulfuric acid. The amounts of antibodies required to achieve a 50% decrease in human DLL4-His bound to plate-coated Notch 1-Fc (IC50) are shown in Table 1 below.

[3] = system: DLL4/Notch signaling pathway; test: Western blotting of NICD in HUVECs on rhDLL4-coated plate (DLL4/Notch signaling pathway); type: cell-based, human; details: 20 μg/ml MLCK-2 mAb
Excerpt: In Notch signaling, when DLL4 binds to a Notch receptor, this causes a […] change in the Notch receptor leading to the cleavage thereof, and then an intracellular domain of Notch (NICD) enters the nucleus and mediates a Notch signaling. In this regard, it was confirmed whether the anti-DLL4 antibody of the present invention could inhibit the binding between DLL4 and a Notch receptor, thereby disrupting the Notch signaling through monitoring the inhibition of a Notch receptor cleavage as below.
To be specific, in order to determine the inhibitory activity of the DLL4-binding antibodies against the DLL4/Notch signaling pathway, the inhibition of signaling pathway in HUVECs was analyzed in the present experiment. One day before conducting experiment, a recombinant human DLL4 (rhDLL4, R&D systems) was diluted with carbonate buffer to a final concentration of 1 μg/ml, and then 1 ml/well of the diluted rhDLL4 was added to a 6-well plate (BD) and incubated at 4° C. overnight. […]
Subsequently, the plate was put on ice and HUVECs were collected from each well using a scraper and put into a 1.5 ml tube and stored in ice. […] For SDS-PAGE analysis, the supernatant was added to 5×SDS sample buffer and boiled at 100° c. for 10 minutes analyzed by SDS-PAGE. […]

T1 sequence (Q9NR61 27-522): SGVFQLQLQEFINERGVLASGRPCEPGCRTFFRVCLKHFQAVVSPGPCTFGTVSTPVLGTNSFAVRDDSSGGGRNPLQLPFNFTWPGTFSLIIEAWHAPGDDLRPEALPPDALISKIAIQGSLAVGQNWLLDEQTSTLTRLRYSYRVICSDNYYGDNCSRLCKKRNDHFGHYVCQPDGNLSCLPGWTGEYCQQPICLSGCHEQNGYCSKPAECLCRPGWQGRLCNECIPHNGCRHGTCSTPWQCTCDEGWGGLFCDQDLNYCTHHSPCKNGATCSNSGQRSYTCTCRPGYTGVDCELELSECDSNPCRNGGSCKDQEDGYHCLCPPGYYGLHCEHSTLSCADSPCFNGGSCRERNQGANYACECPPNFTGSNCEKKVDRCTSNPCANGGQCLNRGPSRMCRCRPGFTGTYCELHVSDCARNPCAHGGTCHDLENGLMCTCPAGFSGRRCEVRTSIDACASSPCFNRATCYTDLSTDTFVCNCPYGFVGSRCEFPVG

Molecule	effect on DLL4-mediated inhibition of HUVEC proliferation [1]	blocking of the bindings between DLL4 and human Notch 1 receptor [2]	level of NICD / Notch signaling (western blotting) [3]
B1	blocks the DLL4-mediated suppression of HUVEC proliferation	blocked most of the bindings	reduced the level of NICD; also recorded: inhibits Notch signaling
B2	–	blocked most of the bindings	–
B3	–	blocked most of the bindings	–
B4	–	blocked most of the bindings	–
